Starred links: 1 amine or outer side, 2 acyl side, 3 side chain; linkers in the order of their positions; H or OH if unused. Non-standard residues stand in square brackets, D forms with d. *: point of attachment. dBip = N[C@H](Cc1ccc(-c2ccccc2)cc1)C(=O)O; Oic = O=C(O)[C@@H]1C[C@@H]2CCCC[C@@H]2N1; Phe(4-I) = N[C@@H](Cc1ccc(I)cc1)C(=O)O; γGlu = O=C(O)[C@H](CCC(=O)[*:2])N[*:1]; Tridecanoyl = CCCCCCCCCCCCC(=O)*; hArg = N=C(N)NCCCC[C@H](N)C(=O)O; NMeL = CN[C@@H](CC(C)C)C(=O)O; Nle = CCCC[C@H](N)C(=O)O; AEEA = NCCOCCOCC(=O)O
T1: human APJ receptor (human, UniProt P35414 1-380)
T1 sequence (looked up): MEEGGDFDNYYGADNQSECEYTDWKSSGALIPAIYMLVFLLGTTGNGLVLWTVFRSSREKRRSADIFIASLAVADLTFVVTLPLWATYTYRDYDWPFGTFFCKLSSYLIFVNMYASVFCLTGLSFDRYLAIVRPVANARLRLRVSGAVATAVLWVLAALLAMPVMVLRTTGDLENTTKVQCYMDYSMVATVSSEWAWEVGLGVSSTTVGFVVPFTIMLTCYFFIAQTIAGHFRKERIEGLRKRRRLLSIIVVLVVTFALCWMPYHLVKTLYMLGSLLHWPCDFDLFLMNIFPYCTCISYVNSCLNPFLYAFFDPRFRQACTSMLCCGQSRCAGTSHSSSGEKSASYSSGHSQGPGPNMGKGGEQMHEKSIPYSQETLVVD

T2: rat APJ receptor (rat, UniProt Q9JHG3 1-377)
T2 sequence (looked up): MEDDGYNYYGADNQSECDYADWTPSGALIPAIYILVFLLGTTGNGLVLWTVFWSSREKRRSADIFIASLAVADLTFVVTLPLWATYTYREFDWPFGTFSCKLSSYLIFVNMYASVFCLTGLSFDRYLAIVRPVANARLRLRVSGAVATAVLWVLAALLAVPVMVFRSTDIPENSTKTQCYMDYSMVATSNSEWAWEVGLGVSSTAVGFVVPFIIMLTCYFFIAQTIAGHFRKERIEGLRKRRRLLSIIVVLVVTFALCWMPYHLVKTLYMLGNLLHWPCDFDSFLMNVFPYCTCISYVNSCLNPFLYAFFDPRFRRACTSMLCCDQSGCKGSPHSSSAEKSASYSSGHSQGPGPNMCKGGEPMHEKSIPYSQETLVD


Experiments:
human APJ receptor = molecular target: T1, human APJ receptor; test: cell-based or functional assay
rat APJ receptor = molecular target: T2, rat APJ receptor; test: cell-based or functional assay

Binder	EC50 Human APJ Receptor (human APJ receptor) [µM]	EC50 Rat APJ Receptor (rat APJ receptor) [µM]
Tridecanoyl-[γGlu][AEEA][AEEA][hArg][dR]Q[Nle]P[dR][NMeL]AAKG[Oic][Phe(4-I)]P[dBip]-OH (SMILES CCCCCCCCCCCCC(=O)N[C@@H](CCC(=O)NCCOCCOCC(=O)NCCOCCOCC(=O)N[C@@H](CCCCNC(=N)N)C(=O)N[C@H](CCCNC(=N)N)C(=O)N[C@@H](CCC(N)=O)C(=O)N[C@@H](CCCC)C(=O)N1CCC[C@H]1C(=O)N[C@H](CCCNC(=N)N)C(=O)N(C)[C@@H](CC(C)C)C(=O)N[C@@H](C)C(=O)N[C@@H](C)C(=O)N[C@@H](CCCCN)C(=O)NCC(=O)N1[C@H](C(=O)N[C@@H](Cc2ccc(I)cc2)C(=O)N2CCC[C@H]2C(=O)N[C@H](Cc2ccc(-c3ccccc3)cc2)C(=O)O)C[C@@H]2CCCC[C@@H]21)C(=O)O) [SEQ ID NO: 334]	0.0341	0.0447
Tridecanoyl-[γGlu][AEEA][AEEA][hArg][dR]Q[hArg]P[Nle][NMeL]SAKG[Oic][Phe(4-I)]P[dBip]-OH (SMILES CCCCCCCCCCCCC(=O)N[C@@H](CCC(=O)NCCOCCOCC(=O)NCCOCCOCC(=O)N[C@@H](CCCCNC(=N)N)C(=O)N[C@H](CCCNC(=N)N)C(=O)N[C@@H](CCC(N)=O)C(=O)N[C@@H](CCCCNC(=N)N)C(=O)N1CCC[C@H]1C(=O)N[C@@H](CCCC)C(=O)N(C)[C@@H](CC(C)C)C(=O)N[C@@H](CO)C(=O)N[C@@H](C)C(=O)N[C@@H](CCCCN)C(=O)NCC(=O)N1[C@H](C(=O)N[C@@H](Cc2ccc(I)cc2)C(=O)N2CCC[C@H]2C(=O)N[C@H](Cc2ccc(-c3ccccc3)cc2)C(=O)O)C[C@@H]2CCCC[C@@H]21)C(=O)O) [SEQ ID NO: 323]	0.00251	0.0053
Tridecanoyl-[γGlu][AEEA][AEEA][hArg][dR]Q[hArg]P[dR][NMeL]AA[Nle]G[Oic][Phe(4-I)]P[dBip]-OH (SMILES CCCCCCCCCCCCC(=O)N[C@@H](CCC(=O)NCCOCCOCC(=O)NCCOCCOCC(=O)N[C@@H](CCCCNC(=N)N)C(=O)N[C@H](CCCNC(=N)N)C(=O)N[C@@H](CCC(N)=O)C(=O)N[C@@H](CCCCNC(=N)N)C(=O)N1CCC[C@H]1C(=O)N[C@H](CCCNC(=N)N)C(=O)N(C)[C@@H](CC(C)C)C(=O)N[C@@H](C)C(=O)N[C@@H](C)C(=O)N[C@@H](CCCC)C(=O)NCC(=O)N1[C@H](C(=O)N[C@@H](Cc2ccc(I)cc2)C(=O)N2CCC[C@H]2C(=O)N[C@H](Cc2ccc(-c3ccccc3)cc2)C(=O)O)C[C@@H]2CCCC[C@@H]21)C(=O)O) [SEQ ID NO: 330]	0.0397	0.0561
Tridecanoyl-[γGlu][AEEA][AEEA][hArg][dR]Q[hArg]P[dR][NMeL]AH[Nle]G[Oic][Phe(4-I)]P[dBip]-OH (SMILES CCCCCCCCCCCCC(=O)N[C@@H](CCC(=O)NCCOCCOCC(=O)NCCOCCOCC(=O)N[C@@H](CCCCNC(=N)N)C(=O)N[C@H](CCCNC(=N)N)C(=O)N[C@@H](CCC(N)=O)C(=O)N[C@@H](CCCCNC(=N)N)C(=O)N1CCC[C@H]1C(=O)N[C@H](CCCNC(=N)N)C(=O)N(C)[C@@H](CC(C)C)C(=O)N[C@@H](C)C(=O)N[C@@H](Cc1c[nH]cn1)C(=O)N[C@@H](CCCC)C(=O)NCC(=O)N1[C@H](C(=O)N[C@@H](Cc2ccc(I)cc2)C(=O)N2CCC[C@H]2C(=O)N[C@H](Cc2ccc(-c3ccccc3)cc2)C(=O)O)C[C@@H]2CCCC[C@@H]21)C(=O)O) [SEQ ID NO: 318]	0.00744	0.0459
Tridecanoyl-[γGlu][AEEA][AEEA][hArg][dR]Q[hArg]P[dR][NMeL]SA[Nle]G[Oic][Phe(4-I)]P[dBip]-OH (SMILES CCCCCCCCCCCCC(=O)N[C@@H](CCC(=O)NCCOCCOCC(=O)NCCOCCOCC(=O)N[C@@H](CCCCNC(=N)N)C(=O)N[C@H](CCCNC(=N)N)C(=O)N[C@@H](CCC(N)=O)C(=O)N[C@@H](CCCCNC(=N)N)C(=O)N1CCC[C@H]1C(=O)N[C@H](CCCNC(=N)N)C(=O)N(C)[C@@H](CC(C)C)C(=O)N[C@@H](CO)C(=O)N[C@@H](C)C(=O)N[C@@H](CCCC)C(=O)NCC(=O)N1[C@H](C(=O)N[C@@H](Cc2ccc(I)cc2)C(=O)N2CCC[C@H]2C(=O)N[C@H](Cc2ccc(-c3ccccc3)cc2)C(=O)O)C[C@@H]2CCCC[C@@H]21)C(=O)O) [SEQ ID NO: 324]	0.0149	0.0204
Tridecanoyl-[γGlu][AEEA][AEEA][hArg][dR]Q[hArg]PK[NMeL]AH[Nle]G[Oic][Phe(4-I)]P[dBip]-OH (SMILES CCCCCCCCCCCCC(=O)N[C@@H](CCC(=O)NCCOCCOCC(=O)NCCOCCOCC(=O)N[C@@H](CCCCNC(=N)N)C(=O)N[C@H](CCCNC(=N)N)C(=O)N[C@@H](CCC(N)=O)C(=O)N[C@@H](CCCCNC(=N)N)C(=O)N1CCC[C@H]1C(=O)N[C@@H](CCCCN)C(=O)N(C)[C@@H](CC(C)C)C(=O)N[C@@H](C)C(=O)N[C@@H](Cc1c[nH]cn1)C(=O)N[C@@H](CCCC)C(=O)NCC(=O)N1[C@H](C(=O)N[C@@H](Cc2ccc(I)cc2)C(=O)N2CCC[C@H]2C(=O)N[C@H](Cc2ccc(-c3ccccc3)cc2)C(=O)O)C[C@@H]2CCCC[C@@H]21)C(=O)O) [SEQ ID NO: 319]	0.0732	0.0631

Continued, values first:

EC50 Human APJ Receptor (human APJ receptor) [µM]	EC50 Rat APJ Receptor (rat APJ receptor) [µM]	Binder
0.0147	0.0104	Tridecanoyl-[γGlu][AEEA][AEEA][hArg][dR]Q[hArg]PK[NMeL]SH[Nle]G[Oic][Phe(4-I)]P[dBip]-OH (SMILES CCCCCCCCCCCCC(=O)N[C@@H](CCC(=O)NCCOCCOCC(=O)NCCOCCOCC(=O)N[C@@H](CCCCNC(=N)N)C(=O)N[C@H](CCCNC(=N)N)C(=O)N[C@@H](CCC(N)=O)C(=O)N[C@@H](CCCCNC(=N)N)C(=O)N1CCC[C@H]1C(=O)N[C@@H](CCCCN)C(=O)N(C)[C@@H](CC(C)C)C(=O)N[C@@H](CO)C(=O)N[C@@H](Cc1c[nH]cn1)C(=O)N[C@@H](CCCC)C(=O)NCC(=O)N1[C@H](C(=O)N[C@@H](Cc2ccc(I)cc2)C(=O)N2CCC[C@H]2C(=O)N[C@H](Cc2ccc(-c3ccccc3)cc2)C(=O)O)C[C@@H]2CCCC[C@@H]21)C(=O)O) [SEQ ID NO: 313]
0.0136	0.0106	Tridecanoyl-[γGlu][AEEA][AEEA][hArg][dR]Q[hArg]P[dR][NMeL]SH[Nle]G[Oic][Phe(4-I)]P[dBip]-OH (SMILES CCCCCCCCCCCCC(=O)N[C@@H](CCC(=O)NCCOCCOCC(=O)NCCOCCOCC(=O)N[C@@H](CCCCNC(=N)N)C(=O)N[C@H](CCCNC(=N)N)C(=O)N[C@@H](CCC(N)=O)C(=O)N[C@@H](CCCCNC(=N)N)C(=O)N1CCC[C@H]1C(=O)N[C@H](CCCNC(=N)N)C(=O)N(C)[C@@H](CC(C)C)C(=O)N[C@@H](CO)C(=O)N[C@@H](Cc1c[nH]cn1)C(=O)N[C@@H](CCCC)C(=O)NCC(=O)N1[C@H](C(=O)N[C@@H](Cc2ccc(I)cc2)C(=O)N2CCC[C@H]2C(=O)N[C@H](Cc2ccc(-c3ccccc3)cc2)C(=O)O)C[C@@H]2CCCC[C@@H]21)C(=O)O) [SEQ ID NO: 312]
0.0247	0.0181	Tridecanoyl-[γGlu][AEEA][AEEA][hArg][dR]Q[hArg]PK[NMeL]AA[Nle]G[Oic][Phe(4-I)]P[dBip]-OH (SMILES CCCCCCCCCCCCC(=O)N[C@@H](CCC(=O)NCCOCCOCC(=O)NCCOCCOCC(=O)N[C@@H](CCCCNC(=N)N)C(=O)N[C@H](CCCNC(=N)N)C(=O)N[C@@H](CCC(N)=O)C(=O)N[C@@H](CCCCNC(=N)N)C(=O)N1CCC[C@H]1C(=O)N[C@@H](CCCCN)C(=O)N(C)[C@@H](CC(C)C)C(=O)N[C@@H](C)C(=O)N[C@@H](C)C(=O)N[C@@H](CCCC)C(=O)NCC(=O)N1[C@H](C(=O)N[C@@H](Cc2ccc(I)cc2)C(=O)N2CCC[C@H]2C(=O)N[C@H](Cc2ccc(-c3ccccc3)cc2)C(=O)O)C[C@@H]2CCCC[C@@H]21)C(=O)O) [SEQ ID NO: 331]
0.00396	0.00476	Tridecanoyl-[γGlu][AEEA][AEEA][hArg][dR]Q[hArg]PK[NMeL]SA[Nle]G[Oic][Phe(4-I)]P[dBip]-OH (SMILES CCCCCCCCCCCCC(=O)N[C@@H](CCC(=O)NCCOCCOCC(=O)NCCOCCOCC(=O)N[C@@H](CCCCNC(=N)N)C(=O)N[C@H](CCCNC(=N)N)C(=O)N[C@@H](CCC(N)=O)C(=O)N[C@@H](CCCCNC(=N)N)C(=O)N1CCC[C@H]1C(=O)N[C@@H](CCCCN)C(=O)N(C)[C@@H](CC(C)C)C(=O)N[C@@H](CO)C(=O)N[C@@H](C)C(=O)N[C@@H](CCCC)C(=O)NCC(=O)N1[C@H](C(=O)N[C@@H](Cc2ccc(I)cc2)C(=O)N2CCC[C@H]2C(=O)N[C@H](Cc2ccc(-c3ccccc3)cc2)C(=O)O)C[C@@H]2CCCC[C@@H]21)C(=O)O) [SEQ ID NO: 325]
